Assay results as given in patent US20090092614A1.

Legend:
[1] = target: murine IGF-1R(1-903)-Fc (murine; human) (UniProt Q60751); assay: SPR
[2] = target: murine IGF-1R(1-903)-Fc (murine; human) (UniProt Q60751); assay: SPR, Fab over receptor-Fc captured on M13-C06 surface

Chain of murine IGF-1R(1-903)-Fc (murine; human) (Q60751 31-933 limits assumed, form in doubt): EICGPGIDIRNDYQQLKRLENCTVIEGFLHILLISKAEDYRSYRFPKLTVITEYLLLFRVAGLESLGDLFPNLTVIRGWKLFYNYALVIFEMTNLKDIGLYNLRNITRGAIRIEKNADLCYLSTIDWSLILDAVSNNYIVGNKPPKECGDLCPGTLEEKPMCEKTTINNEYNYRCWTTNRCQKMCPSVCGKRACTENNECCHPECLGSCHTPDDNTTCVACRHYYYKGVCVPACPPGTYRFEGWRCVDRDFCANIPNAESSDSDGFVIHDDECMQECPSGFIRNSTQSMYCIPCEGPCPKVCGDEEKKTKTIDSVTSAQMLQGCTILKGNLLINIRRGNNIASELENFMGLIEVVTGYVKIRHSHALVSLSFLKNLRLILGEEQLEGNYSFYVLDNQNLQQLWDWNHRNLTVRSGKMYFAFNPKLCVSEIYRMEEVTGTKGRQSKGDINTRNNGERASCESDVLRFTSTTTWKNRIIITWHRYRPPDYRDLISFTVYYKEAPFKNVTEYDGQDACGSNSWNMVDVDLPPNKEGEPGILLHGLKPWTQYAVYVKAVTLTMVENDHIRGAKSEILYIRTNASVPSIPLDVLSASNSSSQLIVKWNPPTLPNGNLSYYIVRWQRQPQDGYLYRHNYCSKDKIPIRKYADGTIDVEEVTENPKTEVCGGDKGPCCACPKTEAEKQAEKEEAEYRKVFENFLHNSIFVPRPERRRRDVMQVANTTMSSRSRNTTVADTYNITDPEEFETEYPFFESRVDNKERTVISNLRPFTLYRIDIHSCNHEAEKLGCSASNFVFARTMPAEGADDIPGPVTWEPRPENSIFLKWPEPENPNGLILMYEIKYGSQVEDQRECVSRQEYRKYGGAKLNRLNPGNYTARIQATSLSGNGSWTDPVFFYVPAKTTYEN

fold decrease in binding against human IGF-1R [1]: 100 fold
Biacore Relative RUmax [2]: 0
B1: M13-C06 Fab (Fab, V domains shown)
VH: EVQLLESGGGLVQPGGSLRLSCAASGFTFSIYRMQWVRQAPGKGLEWVSGISPSGGTTWYADSVKGRFTISRDNSKNTLYLQMNSLRAEDTAVYYCARWSGGSGYAFDIWGQGTMVTVSS
VL: DIQMTQSPLSLSASVGDRVTITCQASRDIRNYLNWYQQKPGKAPKLLIYDASSLQTGVPSRFGGSGSGTDFSFTIGSLQPEDIATYYCQQFDSLPHTFGQGTKLEIK
